Assay results published in article PMC8610301 (Current Research in Microbial Sciences, 2021).
Read-outs that look alike come from different tables or passages of the source.

B1: recombinant Cas2 of Leptospira interrogans (LinCas2) (enzyme, UniProt Q8F1F4 1-94, looked up)
chain: MKHWRLVSYDIREPKRLRRVAKIMEGFGERIQYSVFRIYSTDKELEKLRWKLAKVTEEEDNIFYLTLCTKCASGAHTQEKKSAWPEAPKTLKIL
B2: native LinCas2 in the lysate of L. interrogans serovar Copenhageni (natural protein, UniProt Q8F1F4 1-94, looked up)
chain: B1 chain

What was measured:
[1] = target: the molecule itself; assay: immunoblot after SDS-PAGE
[2] = target: the molecule itself; assay: immunoblot after SDS-PAGE; remark: listed apart in the source

Row | Protein | stoichiometry N [1] | stoichiometry N [2]
1 | B1 | 2 | 
2 | B2 |  | 2
